First the molecules themselves.
B1: VHH3 (VHH)
VHH: QVQLQESGGGLVQPGGSLRLSCAASGFTFKYYAMSWVRQAPGKGLEWVSYINDNGGYTDYSDSVKGRFTISRDNAKNTLYLHMNRLKPEDTAVYFCAKWDTDAVSSSRYKTHNGDIRGPGTQVTVSS
B2: VHH15 (VHH)
VHH: QVQGAGLWGGLVQLGGSLRLSCAASGFTFGYYAMSWVRQAPGKGLEWVSYINDNGGYTAYTDPVKGRFTISRDNAKNILYLHMNNLKPEDTAVYFCAKWGTDAVSSSRYKSHDYDSRGPGTQVTVSS
B3: VHH2 (VHH)
VHH: QVQLQESGGGLVQAGDSLRLSCAASGRTFSSYAMGWFRQAPGKEREFVAAVSSSNSPWYGDSIKGRSTIHRDNAKNTVYLYMNNLKPEDTAVYYCAADLEGERLGESSEYDYWGQGTQVTVSS
B4: VHH1 (VHH)
VHH: QVQLQDSGGGLVQAGDRLSLSCAASGRTFSSYDMAWFRQAPGKEREFVAAITTSEGTWYGDAGKGRFTIARVNAKNTVYLHMNRLKPEDTAVYYCAASNQGGSLQISTNYNYWGQGTQVTVSS

This assay deals with rhesus rotavirus strain RRV. Nature of the assay: cell-based or functional assay.
With B1, the “% infection of MA104 cells relative to irrelevant VHH (NSP4 Western blot densitometry)” value came to 40%.
In the case of B2, the “% infection of MA104 cells relative to irrelevant VHH (NSP4 Western blot densitometry)” value amounted to 40%.
As to B3, the “% infection of MA104 cells relative to irrelevant VHH (NSP4 Western blot densitometry)” value amounted to 40%.
On to B4, for which the “% infection of MA104 cells relative to irrelevant VHH (NSP4 Western blot densitometry)” value was found to be 40%.

Source of the values: patent US20110123546A1 (published 2011).
